In article PMC4557121 (2015) one finds Kd data, which are given here for 1 molecule.

Among the targets are M5; A2 (UniProt Q13501); M11; M2; M10; M1; M6.
Holding throughout (assay): SPR
The target of test [1] is A2 with residue 4 substituted with alanine (UniProt Q13501).
Test [2] concerns the target A2 with residue 7 substituted with alanine (UniProt Q13501).
Test [3] concerns the target A2 with residue 9 substituted with alanine (UniProt Q13501).
For test [4], the target named is A2 with residue 3 substituted with alanine (UniProt Q13501).

B1: purified TRB3 protein (natural protein)
chain: MRATPLAAPAGSLSRKKRLELDDNLDTERPVQKRARSGPQPRLPPCLLPLSPPTAPDRATAVATASRLGPYVLLEPEEGGRAYQALHCPTGTEYTCKVYPVQEALAVLEPYARLPPHKHVARPTEVLAGTQLLYAFFTRTHGDMHSLVRSRHRIPEPEAAVLFRQMATALAHCHQHGLVLRDLKLCRFVFADRERKKLVLENLEDSCVLTGPDDSLWDKHACPAYVGPEILSSRASYSGKAADVWSLGVALFTMLAGHYPFQDSEPVLLFGKIRRGAYALPAGLSAPARCLVRCLLRREPAERLTATGILLHPWLRQDPMPLAPTRSHLWEAAQVVPDGLGLDEAREEEGDREVVLYG
A word on the Kd: it is a measure of binding affinity in units of concentration. A high value points to weaker binding. In the case of B1, the Kd amounted to 4320 nM in test [1]; 110 nM with M5; 11800 nM in [2]; 10.2 nM with A2; 73.1 nM in the test with M11; 402 nM with M2. The Kd came to 35600 nM in [3]; 3590 nM in test [4]; 381 nM with M10; 1640 nM with M1; 0.142 nM with M6.
